Experimental data as given in PMC2799296 (Biochemistry, 2009).

Target: the molecule itself
Test: cryo-EM structure

B1: bacteriophage Qβ coat protein, wild-type (133 amino acids, lacking the A1 extension) (natural protein)
chain: MAKLETVTLGNIGKDGKQTLVLNPRGVNPTNGVASLSQAGAVPALEKRVTVSVSQPSRNRKNYKVQVKIQNPTACTANGSCDPSVTRQAYADVTFSFTQYSTDEERAFVRTELAALLASPLLIDAIDQLNPAY
  binding result: binds
